# Test: soluble on expression in E. coli; label from the status in PepcDB or PDB records
row,Sequence,soluble on expression in E. coli
1,MGSDKIHHHHHHMATKSLRRQDLEVHLGSTGQVVGRLYLGSGKRSAFSYDERWLRDARFFTLSPDLLPVLSVQHPQEVFFRALEDTAPDSWGERVIRRAHARLRQQDGETPPLEPVDFLMWVDDEARVGALRLFDPHAKVYLRSGATPGHVPPLVELDKVVQAARALEAGTETARDLQYLLGQGTSLGGARPKSSVRDTDGRLALGKFPSQADRRDVIRGEVLAMHLAAKAGIKVAAARVELIGGTAVAIIRRFDRTDDGGRIPYVSAATMLQSDGRDTVHAYTELVDVLLREGADPIADIHQLWRRLVLNFLICNTDDHLRNTGFLYDSRNHGWRLSPAFDLNPMPGDRRESKTWLTEDSGPIESRDMLMEGAPYFRLAAEEAAAIWTEVAQAVGSWRVVARGLGMQGTDLVDFEPAFA,not soluble
2,MPKNRGVLDAITRSVIDGSDQESSSSFNSDKEYAAVTKGLSSSRVQKKSSLRQMKSKVKELQSLVNHYRENEAALVSSAKLLSGEIIGYEIKMASLHGKMKSILDENNALKETHKSSAEKRIELVRLPSSKEERNYDEYTLLVNLKKEICAKLQDYKNVQNTVNTKLDEIHTFHEKYYEGLELSLDSKVFDAESSKELAKVRRELNNVRKNSEIKVNNLKMQLLQATKSLEHLKKQAKAKDDYLKCIPELVDKANLTMLSYKKSIANQRETIEALQAELSQQSETKGQIETETQNQVQIPTNVTLVDPFEENNPEDLFAIQEQELQDLRLHKKMADERSRTTHLHLERKNNTIKLLQSYVQSLIQRLPPAQRKHHLGIFQKLGSEKSCPLAPAVASTYAPLLLLSQHSNHQEIDNTPQRLLLAAPDGQSYSEKSTTLNLDYSSRKSYLSRLQPPHIANLKSLTLKTLPRVPTDSPQLPSKDKSQETAKKDDRPKLVANEPVTLDTSTPPVAQSLADSKHCSGLHK,not soluble
3,MQQLKAKSLEMRTPQATKTAVLVIGGAEDKVHGREILRTFVARAGASKAYITIIPSASREPAIIGGRYIRIFEEMGAEKVEILDIREREQCDSSQIKASLEACTGVFLTGGDQLRLCGVLSDTAAMDIIRQRVRAGQLTLAGTSAGAAVMGHHMIAGGGSGETPNRSLVDMATGLGFIPEVIVDQHFHNRNRMGRLVSAIAAHPDRLGIGIDEDTCAVFERDGWLQVMGKGSVTIVDPTELTHTNEPLVSANEPLTVHNLRLHILSYGDRFHLYQRTVLPAVHRISS,soluble
4,MSLSHFDSQAPTWDENPKRSLMINAIAEALRSHLPLREDFRVMDYGCGTGELSLAILPWVGYVEGIDTSKGMIDRFSQKIQERNLPNIKAKFMRAGEALEGEFDLVVCNMVLHHIPDPLLYIRQFESSIRPGGHLAIIDLDKEDGSFHPQGTPGVFHQGFSYEEIRAWLDYCYLEERLHHPSLHLIQKNEREYPLTLTLAQKPHEGHHHHHH,soluble
5,MGSDKIHHHHHHMAQSDKDLTLTPLKGKSGQAYIGTYPNGDKIFVKINTTPILAALAKEQIAPQLLWAKRLGNGDMMSAQEWLDGRLLTRADMNSKQIIQVLLQMHKSKPLVNQLLQLNYKVETPLDLLLSWERSAPYQISENAYLQSVVAEMKRNLPDFKKDYATIVHGDVRHSNWVITTSGLVYLVDWDSVRVTDRMYDVAHILSHYIPHTRWVEWLSYYGYKQNTKVFQKIKWYGQLSYLSQILKYYENRDMENVNQEIYELRKFRESF,not soluble
6,SAKFSKQSWGLENEALIVRCPRQGKPSYTVDWYYSQTNKSIPTQERNRVFASGQLLKFLPAAVADSGIYTCIVRSPTFNRTGYANVTIYKKQSDCNVPDYLMYSTVSGSEKNSKIYCPTIDLYNWTAPLEWFKNCQALQGSRYRAHKSFLVIDNVMTEDAGDYTCKFIHNENGANYSVTATRSFTVKDEQGFSLFPVIGAPAQNEIKEVEIGKNANLTCSACFGKGTQFLAAVLWQLNGTKITDFGEPRIQQEEGQNQSFSNGLACLDMVLRIADVKEEDLLLQYDCLALNLHGLRRHTVRLSRKNPSKECF,soluble
7,MGSDKIHHHHHHMLDENFEALRREATAWIVRITSGTATTEDAEALLRWRSRSDAHEQAFQQSARLWKNLGSALGETRKTSASTVTRRSFIAAGSVAAGAAGVGVVLSELGFLPSVDAMLADYATGVGEQRTVELVDGSTAILDGGTTLSLDYSPSSRHLVLTSGAAVFDVVHDAARPFVVTAANGDTTATGTSFSVKHGEEDVSIECLEGHITVQCLGDSQLNGGEGISYSRAGLGKKVAADIETAAAWRRGLLIFEDRPLADVVSDLNRHRRGRVVIASSDLRSRRMSGVFHLNRPDEILAHLEETLQVRPVSLVGGIVLLR,not soluble

# Reference: the DeepSol protein solubility set
